B1: CIC.R215W mutant peptide MIFSKRHWA (peptide)
peptide: MIFSKRHWA
notes: also called M010
B2: KRAS.G12A mutant peptide LVVVGAAGV (peptide)
peptide: LVVVGAAGV
notes: also called M050
B3: CTNNB1.S33C9 mimic peptide YLDCGIHSL (peptide)
peptide: YLDCGIHSL
notes: also called M034
B4: CTNNB1_S33C6 mimic peptide YMDCGIHSV (peptide)
peptide: YMDCGIHSV
notes: also called M023
B5: CTNNB1_S33C10 mimic peptide YMDCGIHSL (peptide)
peptide: YMDCGIHSL
notes: also called M021
B6: PTEN R173C6 mimic peptide CYLYYYSYLV (peptide)
peptide: CYLYYYSYLV
notes: also called M102
B7: PTEN.R173C3 mimic peptide CYMYYYSYLL (peptide)
peptide: CYMYYYSYLL
notes: also called M104
B8: PTEN.R173C11 mimic peptide CYMYYYSYLI (peptide)
peptide: CYMYYYSYLI
notes: also called M106
B9: SF3B1.R625H mutant peptide NMDEYVHNT (peptide)
peptide: NMDEYVHNT
notes: also called M110
B10: CTNNB1.S37F10 mimic peptide YMDSGIHFL (peptide)
peptide: YMDSGIHFL
notes: also called M035
B11: CTNNB1_S37F5 mimic peptide YLDSGIHFV (peptide)
peptide: YLDSGIHFV
notes: also called M032
B12: CTNNB1_S37F14 mimic peptide YMDSGIHFI (peptide)
peptide: YMDSGIHFI
notes: also called M031
B13: TP53.H193L mutant peptide GLAPPQLLI (peptide)
peptide: GLAPPQLLI
notes: also called M140
B14: TP53.H193Y mutant peptide GLAPPQYLI (peptide)
peptide: GLAPPQYLI
notes: also called M150
B15: TP53_H193L6 mimic peptide GMAPPQLLV (peptide)
peptide: GMAPPQLLV
notes: also called M142
B16: KRAS_G12A3 mimic peptide LMVVGAAGV (peptide)
peptide: LMVVGAAGV
notes: also called M052
B17: KRAS_G12C2 mimic peptide LLVVGACGV (peptide)
peptide: LLVVGACGV
notes: also called M061
B18: KRAS_G12V2 mimic peptide LLVVGAVGV (peptide)
peptide: LLVVGAVGV
notes: also called M071
B19: KRAS_G12V3 mimic peptide LMVVGAVGV (peptide)
peptide: LMVVGAVGV
notes: also called M072
B20: PIK3CA_E453K5 mimic peptide GLKDLLNPV (peptide)
peptide: GLKDLLNPV
notes: also called M081
B21: PIK3CA_E453K6 mimic peptide GMKDLLNPV (peptide)
peptide: GMKDLLNPV
notes: also called M082
B22: PIK3CA_G118D5 mimic peptide ILNREIDFV (peptide)
peptide: ILNREIDFV
notes: also called M091
B23: PIK3CA_G118D6 mimic peptide IMNREIDFV (peptide)
peptide: IMNREIDFV
notes: also called M092
B24: PIK3CA_G118D9 mimic peptide ILNREIDFL (peptide)
peptide: ILNREIDFL
notes: also called M093
B25: PTEN.R173C10 mimic peptide CYLYYYSYLI (peptide)
peptide: CYLYYYSYLI
notes: also called M105
B26: SF3B1_R625H5 mimic peptide NMDEYVHNV (peptide)
peptide: NMDEYVHNV
notes: also called M111
B27: SF3B1.R625H10 mimic peptide NLDEYVHNL (peptide)
peptide: NLDEYVHNL
notes: also called M114
B28: SF3B1.R625H13 mimic peptide NMDEYVHNI (peptide)
peptide: NMDEYVHNI
notes: also called M115
B29: SF3B1.R625H14 mimic peptide NLDEYVHNI (peptide)
peptide: NLDEYVHNI
notes: also called M116
B30: SF3B1_R625H6 mimic peptide NLDEYVHNV (peptide)
peptide: NLDEYVHNV
notes: also called M112
B31: SOX17.S403I7 mimic peptide VMSDAISAL (peptide)
peptide: VMSDAISAL
notes: also called M124; SOX17.S40317
B32: SOX17.S403I mutant peptide VVSDAISAV (peptide)
peptide: VVSDAISAV
notes: also called M120; SOX17.S4031
B33: SOX17_S403I3 mimic peptide VMSDAISAV (peptide)
peptide: VMSDAISAV
notes: also called M122; SOX17_S40313
B34: SOX17_S403I6 mimic peptide VLSDAISAL (peptide)
peptide: VLSDAISAL
notes: also called M123; SOX17_S40316
B35: TP53.C141Y12 mimic peptide KLYPVQLWI (peptide)
peptide: KLYPVQLWI
notes: also called M134
B36: TP53_C141Y3 mimic peptide KMYPVQLWV (peptide)
peptide: KMYPVQLWV
notes: also called M132
B37: TP53_H193L5 mimic peptide GLAPPQLLV (peptide)
peptide: GLAPPQLLV
notes: also called M141
B38: TP53_H193Y5 mimic peptide GLAPPQYLV (peptide)
peptide: GLAPPQYLV
notes: also called M151
B39: TP53_H193Y6 mimic peptide GMAPPQYLV (peptide)
peptide: GMAPPQYLV
notes: also called M152
B40: TP53_K132N6 mimic peptide AMNNMFCQV (peptide)
peptide: AMNNMFCQV
notes: also called M162
B41: TP53_P152L3 mimic peptide QLWVDSTPI (peptide)
peptide: QLWVDSTPI
notes: also called M181
B42: TP53_P152L4 mimic peptide QLWVDSTPV (peptide)
peptide: QLWVDSTPV
notes: also called M182
B43: TP53_S127F11 mimic peptide SMTCTYFPL (peptide)
peptide: SMTCTYFPL
notes: also called M211
B44: TP53_V272M2 mimic peptide LLGRNSFEL (peptide)
peptide: LLGRNSFEL
notes: also called M221
B45: TP53_V272M3 mimic peptide LLGRNSFEI (peptide)
peptide: LLGRNSFEI
notes: also called M222
B46: ERBB2_V842I5 mimic peptide RLIHRDLAV (peptide)
peptide: RLIHRDLAV
notes: also called M242
B47: ERBB2_V842I6 mimic peptide RMIHRDLAV (peptide)
peptide: RMIHRDLAV
notes: also called M243; ERBB2_V84216
B48: ERBB2_V842I10 mimic peptide RMIHRDLAL (peptide)
peptide: RMIHRDLAL
notes: also called M241; ERBB2_V842110
B49: CIC_R215W7 mimic peptide MMFSKRHWV (peptide)
peptide: MMFSKRHWV
notes: also called M013
B50: CIC_R215W6 mimic peptide MLFSKRHWV (peptide)
peptide: MLFSKRHWV
notes: also called M012
B51: CIC_R215W15 mimic peptide MMFSKRHWI (peptide)
peptide: MMFSKRHWI
notes: also called M011

molecular target: T1, HLA-A*02:01 class I complex (conditional p*HLA*02:01, biotinylated heavy chain with beta2-microglobulin) (human, biotinylated heavy chain); assay: UV peptide exchange, HLA class I ELISA, % of Pos peptide;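 for Average %: Streptavidin-captured HLA complexes after exchange detected via HRP anti-human B2M antibody, absorbance read, colour scales with intact complex, normalized to exchange control peptide as 100%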;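 for Exch I (%): Streptavidin-captured HLA complexes after exchange detected via HRP anti-human B2M antibody, absorbance read, colour scales with intact complex, normalized to exchange control peptide as 100%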;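 for Exch II (%): Streptavidin-captured HLA complexes after exchange detected via HRP anti-human B2M antibody, absorbance read, colour scales with intact complex, normalized to exchange control peptide as 100%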
T1 construct: UV-labile peptide p* is cleaved and exchanged for the test peptide; also called HLA 2.1
Source text: (§1) The HLA class I ELISA is an enzyme immunoassay based on the detection of beta2-microglobulin (B2M) of (peptide-stabilized) HLA class I complexes. To this end streptavidin is bound onto polystyrene microtiter wells. After washing and blocking, HLA complex present in exchange reaction mixtures or ELISA controls is captured by the streptavidin on the microtiter plate via its biotinylated heavy chain. Non-bound material is removed by washing. Subsequently, horseradish peroxidase (HRP)-conjugated antibody to human B2M is added. […] In the latter case B2M is removed during the washing step. After removal of non-bound HRP conjugate by washing, a substrate solution is added to the wells. A colored product is formed in proportion to the amount of intact HLA complex present in the samples. After the reaction has been terminated by the addition of a stop solution, absorbance is measured in a microtiter plate reader. The absorbance is normalized to the absorbance of an exchange control peptide (represents 100%). Also, suboptimal HLA binding of peptides with a moderate to low affinity for HLA class I molecules can be detected by this ELISA technique
(§2) Coating wells of two NUNC MaxiSorp™ 96-well ELISA plates: only the contents of one coating buffer capsule were dissolved in 100 mL of distilled water (0.05 M carbonate-bicarbonate buffer, pH 9.6 at 25° C.). 46 μL of Streptavidin stock solution were added to 23 mL coating buffer. 100 μL of the Streptavidin stock solution were added to all wells. Each microtiter plate was covered with an adhesive seal and incubated overnight at room temperature (18-25° C.).

Binder | average relative binding (%)
B1 | < 15%
B2 | < 15%
B3 | > 100%
B4 | > 100%
B5 | > 100%
B6 | < 15%
B7 | < 15%
B8 | < 15%
B9 | < 15%
B10 | > 100%
B11 | > 100%
B12 | > 100%
B13 | < 15%
B14 | < 15%
B15 | < 15%

molecular target: T1, HLA-A*02:01 class I complex …; assay: as above; remark: another data set of the same source
Source text: as §1, §2

Binder | Average % | Exch I (%) | Exch II (%)
B1 | 6.2% | 6.2% | 6.1%
B2 | 6.4% | 6.6% | 6.2%
B16 | 51.3% | 51% | 51.5%
B17 | 34.8% | 36.4% | 33.1%
B18 | 35.9% | 31.8% | 40.1%
B19 | 36.1% | 39% | 33.3%
B3 | 107% | 103% | 111%
B4 | 108% | 101% | 115%
B5 | 106% | 108% | 103%
B20 | 74.9% | 73.5% | 76.3%
B21 | 77.5% | 74.7% | 80.4%
B22 | 70.4% | 62.1% | 78.7%
B23 | 66.7% | 68.6% | 64.9%
B24 | 56.2% | 51.1% | 61.3%
B6 | 10.7% | 10.4% | 10.9%
B7 | 8.5% | 8.3% | 8.7%
B25 | 23.3% | 27.8% | 18.9%
B8 | 4.9% | 4.9% | 4.8%
B26 | 83.6% | 86.6% | 80.6%
B27 | 55.1% | 57.2% | 53%
B28 | 68.4% | 73.6% | 63.1%
B29 | 70.1% | 71.1% | 69%
B9 | 8.3% | 9.2% | 7.3%
B30 | 88.2% | 88.1% | 88.4%
B10 | 105% | 102% | 108%
B11 | 104% | 99.3% | 109%

Binder | Average % | Exch I (%) | Exch II (%)
B12 | 107% | 97.6% | 116%
B31 | 77.4% | 75.3% | 79.5%
B32 | 86.2% | 88.5% | 83.8%
B33 | 92.4% | 96.9% | 87.9%
B34 | 87.3% | 91.9% | 82.6%
B35 | 73.9% | 81.3% | 66.4%
B36 | 76.9% | 72.7% | 81%
B37 | 42.2% | 40.3% | 44.1%
B13 | 8.2% | 9.2% | 7.2%
B14 | 13.3% | 13.5% | 13.1%
B15 | 13.9% | 13.9% | 13.9%
B38 | 48.2% | 48.8% | 47.6%
B39 | 21.4% | 22.5% | 20.3%
B40 | 70.1% | 69.4% | 70.8%
B41 | 67.9% | 62% | 73.8%
B42 | 95.7% | 95.6% | 95.7%
B43 | 53.5% | 56.4% | 50.6%
B44 | 98.4% | 101% | 95.7%
B45 | 66.7% | 75.3% | 58%
B46 | 73.6% | 69.9% | 77.3%
B47 | 57.6% | 56.7% | 58.5%
B48 | 53.7% | 51.5% | 55.8%
B49 | 74.4% | 76.2% | 72.6%
B50 | 74.3% | 74.8% | 73.8%
B51 | 42.8% | 40.4% | 45.3%

— patent US20220194999A1 (Janssen / Centocor, published 2022)
